Experimental data: US20240092930A1 (MABWELL SHANGHAI BIOSCIENCE, published 2024)

T1: recombinant mouse Trop-2-his protein (Cat.: 50922-M08H, Beijing Yiqiao Shenzhou Science and Technology Co., … (mouse, UniProt Q8BGV3 25-270))
T1 construct: Bought protein; not shown: his tag
T1 sequence (looked up): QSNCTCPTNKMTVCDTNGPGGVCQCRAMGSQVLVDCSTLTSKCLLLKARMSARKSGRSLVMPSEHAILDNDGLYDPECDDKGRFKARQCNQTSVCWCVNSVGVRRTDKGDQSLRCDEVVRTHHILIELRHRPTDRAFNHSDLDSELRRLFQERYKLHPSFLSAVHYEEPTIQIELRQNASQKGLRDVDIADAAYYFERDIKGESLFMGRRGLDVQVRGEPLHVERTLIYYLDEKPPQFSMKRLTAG

B1: PC (antibody, V domains shown)
VH: QVQLQQSGSELKKPGASVKVSCKASGYTFTNYGMNWVKQAPGQGLKWMGWINTYTGEPTYTDDFKGRFAFSLDTSVSTAYLQISSLKADDTAVYFCARGGFGSSYWYFDVWGQGSLVTVSS
VL: DIQLTQSPSSLSASVGDRVSITCKASQDVSIAVAWYQQKPGKAPKLLIYSASYRYTGVPDRFSGSGSGTDFTLTISSLQPEDFAVYYCQQHYITPLTFGAGTKVEIK
notes: not the human IgG1 Sacituzumab m5; also called Positive Control (PC); Sacituzumab, a version having murine IgG constant region; not shown: murine IgG heavy-chain constant region and murine light-chain constant region of this version
B2: m17-1 (antibody, mouse IgG1, V domains shown)
VH: EVKLVESGGVLVKPGGSLKLSCAASGFTFSDSAMSWVRQTPEKRLEWVASISRGDDTYYPDSVKGRITISRDFARNILYLQMTSLRSEDTAMYYCTRDRFGFAYWGQGTLVTVSA
VL: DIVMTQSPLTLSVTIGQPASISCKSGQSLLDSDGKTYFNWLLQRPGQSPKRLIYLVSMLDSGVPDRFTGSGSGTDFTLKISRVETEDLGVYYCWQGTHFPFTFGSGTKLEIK
notes: also called murine antibody 17-1

Key:
[1] = molecular target: T1, recombinant mouse Trop-2-his protein …; assay: ELISA, plate coated with recombinant mouse Trop-2-his, HRP-goat anti-mouse IgG (Fc gamma), OD450/630
Method: (§1) Washed with PBS 3 times, the plates were blocked with the added 5% BSA PBS at 37° C. for 60 min, and then washed 3 times with PBST. The 15 purified murine antibodies were diluted to 1 μg/ml with PBS. Controls as follows were set: (1) Positive Control (PC): Sacituzumab (WHO Drug Information (Vol. 31, No. 1, 2017), SEQ ID NO: 39 and SEQ ID NO: 40), a version having murine IgG constant region, […]; (2) Negative Control (NC): an antibody from an irrelevant hybridoma, 1 μg/ml; (3) blank control: PBS. After incubation at 37° C. for 60 min, the plates were washed 4 times with PBST. […] Afterwards, the plates were washed with PBST 4 times, and TMB substrate was added for color development at 37° C. for 10 min. Then 2M HCl was added to stop reaction; and absorbances at 450 nm and at 630 nm (as reference wavelength) were read, and A450 nm-630 nm values of the wells in the plates were recorded.

[2] = molecular target: T1, recombinant mouse Trop-2-his protein …; assay: ELISA, coated mouse Trop-2-his, purified murine antibody 1 µg/ml
Method: as §1

Binder	binding result [1]	binding result [2]
B1	no binding (tested: 1 µg/ml (paragraph 111 prints '1 g/ml'))	
B2		binds
